This passage reports Kd results from US20230124851A1 (INHIBRX LNC, published 2023).

In experiment [1] the target is T1, CD3 on the surface of human T cells (human, UniProt P07766 23-207).
T1 construct: whole, on cells; Part of the CD3/TCR complex on cells; also called CD3 epsilon
Description: flow cytometry on primary human T cells; column head 'Affinity CD3'. The method, then:
(§1) Binding of exemplary B7H3-targeting constrained CD3 engaging constructs set forth in Table E3 to CD3 on the surface of primary T cells or B7H3-expressing cells (A375) was assessed by flow cytometry. The T cells were primary T-cells that were negatively enriched from PBMCs isolated from healthy human donor peripheral blood leukopaks. Bound construct was detected with fluorophore-conjugated secondary antibodies specific for the human Fc (anti-human IgG APC secondary antibody) and binding was measured by flow cytometry. Cells incubated with secondary antibody only served as negative controls. Binding was compared to Dual-affinity Re-targeting Antibody (DART)-monomeric Fc format targeting B7H3 and CD3 (DART-Fc B7H3xCD3; see e.g. WO2017030926A1).
(§2) Table E4 summarizes the affinity of exemplary molecules for B7H3 or CD3, as determined from flow cytometry, in these studies.
For orientation: Flow cytometry measures light scatter and fluorescence of single cells or particles in a stream.

For experiment [2], the target named is T2, human B7H3 (CD276) on the cell surface (human, UniProt Q5ZPR3 29-534).
T2 construct: B7H3 on A375 and other B7H3-positive or transfected cells
T2 sequence: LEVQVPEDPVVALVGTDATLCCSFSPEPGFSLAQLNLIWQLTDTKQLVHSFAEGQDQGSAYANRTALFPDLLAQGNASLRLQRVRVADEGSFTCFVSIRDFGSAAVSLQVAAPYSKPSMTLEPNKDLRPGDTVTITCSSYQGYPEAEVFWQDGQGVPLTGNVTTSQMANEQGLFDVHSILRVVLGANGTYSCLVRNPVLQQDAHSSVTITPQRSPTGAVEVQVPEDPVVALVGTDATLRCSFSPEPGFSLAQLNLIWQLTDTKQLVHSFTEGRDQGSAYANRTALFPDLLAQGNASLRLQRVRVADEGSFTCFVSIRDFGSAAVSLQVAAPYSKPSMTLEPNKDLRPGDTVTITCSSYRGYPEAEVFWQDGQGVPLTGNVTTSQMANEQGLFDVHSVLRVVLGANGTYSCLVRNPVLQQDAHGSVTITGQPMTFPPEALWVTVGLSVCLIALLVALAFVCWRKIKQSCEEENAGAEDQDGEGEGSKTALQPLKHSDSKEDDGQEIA
Description: flow cytometry titration on A375 cells (B7H3+); column head 'Affinity B7H3' (apparent). The procedure: as §1, §2

T1 sequence (P07766 23-207): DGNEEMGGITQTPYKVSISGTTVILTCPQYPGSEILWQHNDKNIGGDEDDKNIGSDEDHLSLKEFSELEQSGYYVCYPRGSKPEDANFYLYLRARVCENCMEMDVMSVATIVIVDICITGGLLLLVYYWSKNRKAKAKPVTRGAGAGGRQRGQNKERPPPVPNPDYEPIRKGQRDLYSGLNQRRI

B1: cx4136 (bispecific antibody)
chain 1: EVQLVESGGGEVQPGGSLRLSCAASGSTFSSYHMSWFRQAPGKQREPVATSHHGGTTNYAGSVKGRFTISRDNAKNTVYLQMNTLRAEDTAVYYCKADHGYQGRGYWGQGTLVTVKPDKTHTCPPCPAPGGPSVFLFPPKPKDTLMISRTPEVTCVVVDVSHEDPEVKFNWYVDGVEVHNAKTKPREEQYNSTYRVVSVLTVLHQDWLNGKEYKCKVSNKALPAPIEKTISKAKGQPREPQVYTLPPCRDELTKNQVSLWCLVKGFYPSDIAVEWESNGQPENNYKTTPPVLDSDGSFFLYSKLTVDKSRWQQGNVFSCSVMHEALHNHYTQKSLSLSPTGGGGGSGGGGGSGGGGGSEVQLVESGGGLVQPGGSLRLSCAASGFTFNTYAMNWVRQAPGKCLEWVARIRSKYNNYATYYADSVKGRFTISRDDAKNTLYLQMSSLRAEDTAVYYCVRHGNFGNSYVSWFAYWGQGTLVTVKPEVQLVESGGGEVQPGGSLRLSCAASGSTFSSYHMSWFRQAPGKQREPVATSHHGGTTNYAGSVKGRFTISRDNAKNTVYLQMNTLRAEDTAVYYCKADHGYQGRGYWGQGTLVTVKP
chain 2: DKTHTCPPCPAPGGPSVFLFPPKPKDTLMISRTPEVTCVVVDVSHEDPEVKFNWYVDGVEVHNAKTKPREEQYNSTYRVVSVLTVLHQDWLNGKEYKCKVSNKALPAPIEKTISKAKGQPREPQVCTLPPSRDELTKNQVSLSCAVKGFYPSDIAVEWESNGQPENNYKTTPPVLDSDGSFFLVSKLTVDKSRWQQGNVFSCSVMHEALHNRYTQKSLSLSPTGGGGGSGGGGGSGGGGGSQAVVTQEPSLTVSPGGTVTLTCGSSTGAVTTSNYANWVQQKPGQAFRGLIGGTNKRAPGVPARFSGSLLGGKAALTISGAQPEDEADYYCALWYSNHWVFGCGTKLTVL
For the molecule B1, the results for the Kd in experiment [1] and in experiment [2] were greater than 200 nM and 0.368 nM, respectively.

B2: cx4137 (bispecific antibody)
chain 1: EVQLVESGGGEVQPGGSLRLSCAASGSTFSSYHMSWFRQAPGKQREPVATSHHGGTTNYAGSVKGRFTISRDNAKNTVYLQMNTLRAEDTAVYYCKADHGYQGRGYWGQGTLVTVKPDKTHTCPPCPAPGGPSVFLFPPKPKDTLMISRTPEVTCVVVDVSHEDPEVKFNWYVDGVEVHNAKTKPREEQYNSTYRVVSVLTVLHQDWLNGKEYKCKVSNKALPAPIEKTISKAKGQPREPQVYTLPPCRDELTKNQVSLWCLVKGFYPSDIAVEWESNGQPENNYKTTPPVLDSDGSFFLYSKLTVDKSRWQQGNVFSCSVMHEALHNHYTQKSLSLSPTGGGGGSGGGGGSGGGGGSEVQLVESGGGLVQPGGSLRLSCAASGFTFNTYAMNWVRQAPGKCLEWVARIRSKYNNYATYYADSVKGRFTISRDDAKNTLYLQMSSLRAEDTAVYYCVRHGNFGNSYVSWFAYWGQGTLVTVKPEVQLVESGGGEVQPGGSLRLSCAASGSTFSSYHMSWFRQAPGKQREPVATSHHGGTTNYAGSVKGRFTISRDNAKNTVYLQMNTLRAEDTAVYYCKADHGYQGRGYWGQGTLVTVKP
chain 2: DKTHTCPPCPAPGGPSVFLFPPKPKDTLMISRTPEVTCVVVDVSHEDPEVKFNWYVDGVEVHNAKTKPREEQYNSTYRVVSVLTVLHQDWLNGKEYKCKVSNKALPAPIEKTISKAKGQPREPQVCTLPPSRDELTKNQVSLSCAVKGFYPSDIAVEWESNGQPENNYKTTPPVLDSDGSFFLVSKLTVDKSRWQQGNVFSCSVMHEALHNRYTQKSLSLSPTGGGGGSGGGGGSGGGGGSQAVVTQEPSLTVSPGGTVTLTCGSSTGAVTTSNYANWVQQKPGQAFRGLIGGTNKRAPGVPARFSGSLLGGKAALTISGAQPEDEADYYCALWYSNHWVFGCGTKLTVLEVQLLESGGGEVQPGGSLRLSCAASGFSFSINAMGWYRQAPGKRREFVAAIESGRNTVYAESVKGRFTISRDNAKNTVYLQMSSLRAEDTAVYYCGLLKGNRVVSPSVAYWGQGTLVTVKP
notes: chain 2 ends in the 4-1BB sdAb RH3v5-1
As to B2, the Kd was greater than 200 nM in experiment [1] and 0.375 nM in experiment [2].

B3: cx4641 (bispecific antibody)
chain 1: EVQLVESGGGEVQPGGSLRLSCAASGSTFSSYHMSWFRQAPGKQREPVATSHHGGTTNYAGSVKGRFTISRDNAKNTVYLQMNTLRAEDTAVYYCKADHGYQGRGYWGQGTLVTVKPDKTHTCPPCPAPGGPSVFLFPPKPKDTLMISRTPEVTCVVVDVSHEDPEVKFNWYVDGVEVHNAKTKPREEQYNSTYRVVSVLTVLHQDWLNGKEYKCKVSNKALPAPIEKTISKAKGQPREPQVYTLPPCRDELTKNQVSLWCLVKGFYPSDIAVEWESNGQPENNYKTTPPVLDSDGSFFLYSKLTVDKSRWQQGNVFSCSVMHEALHNHYTQKSLSLSPTGGSGGGGIEPDIGGSGGSEVQLVESGGGLVQPGGSLRLSCAASGFTFNTYAMNWVRQAPGKCLEWVARIRSKYNNYATYYADSVKGRFTISRDDAKNTLYLQMSSLRAEDTAVYYCVRHGNFGNSYVSWFAYWGQGTLVTVKPQLQLQESGGGLVQAGDSLRLSCAASGFSFGSNVMMWVRQAPGKGPEWVSTIYSSGTGTFYADSVKGRFTISRNNAKNTLYLQMNSLKPDDTAVYYCATSGPVRGWGPRSQGTLVTVKP
chain 2: DKTHTCPPCPAPGGPSVFLFPPKPKDTLMISRTPEVTCVVVDVSHEDPEVKFNWYVDGVEVHNAKTKPREEQYNSTYRVVSVLTVLHQDWLNGKEYKCKVSNKALPAPIEKTISKAKGQPREPQVCTLPPSRDELTKNQVSLSCAVKGFYPSDIAVEWESNGQPENNYKTTPPVLDSDGSFFLVSKLTVDKSRWQQGNVFSCSVMHEALHNRYTQKSLSLSPTGGSGGGGIEPDIGGSGGSQAVVTQEPSLTVSPGGTVTLTCGSSTGAVTTSNYANWVQQKPGQAFRGLIGGTNKRAPGVPARFSGSLLGGKAALTISGAQPEDEADYYCALWYSNHWVFGCGTKLTVL
notes: Printed composition is the same as cx4645
On to B3, for which the figures for the Kd in experiment [1] and in experiment [2] were greater than 200 nM and 0.379 nM, respectively.

B4: cx3090 (bispecific antibody, not shown: a dimerising Fc or GST)
chain 1: EVQLVESGGGEVQPGGSLRLSCAASGSTFSSYHMSWFRQAPGKQREPVATSHHGGTTNYAGSVKGRFTISRDNAKNTVYLQMNTLRAEDTAVYYCKADHGYQGRGYWGQGTLVTVKPGGSGGGGIEPDIGGSGGSEVQLVESGGGLVQPGGSLRLSCAASGFTFNTYAMNWVRQAPGKCLEWVARIRSKYNNYATYYADSVKGRFTISRDDAKNTLYLQMSSLRAEDTAVYYCVRHGNFGNSYVSWFAYWGQGTLVTVKPEVQLVESGGGEVQPGGSLRLSCAPSERTFSTYTMGWFRQAPGKEREFVAVVNWGGGSKYYAESVKGRFTISRDNAKNTVYLQMSSLRAEDTAVYYCAAGGAYSGPYYDTRQYTYWGQGTLVTVKP
chain 2: GGSGGGGIEPDIGGSGGSQAVVTQEPSLTVSPGGTVTLTCGSSTGAVTTSNYANWVQQKPGQAFRGLIGGTNKRAPGVPARFSGSLLGGKAALTISGAQPEDEADYYCALWYSNHWVFGCGTKLTVLEVQLLESGGGEVQPGGSLRLSCAASGFSFSINAMGWYRQAPGKRREFVAAIESGRNTVYAESVKGRFTISRDNAKNTVYLQMSSLRAEDTAVYYCGLLKGNRVVSPSVAYWGQGTLVTVKP
notes: as for B2
Turning to B4, the values for the Kd in experiment [1] and in experiment [2] were greater than 200 nM and 0.523 nM, respectively.

B5: cx3072 (bispecific antibody)
chain 1: EVQLVESGGGEVQPGGSLRLSCAASGSTFSSYHMSWFRQAPGKQREPVATSHHGGTTNYAGSVKGRFTISRDNAKNTVYLQMNTLRAEDTAVYYCKADHGYQGRGYWGQGTLVTVKPPGGGGDKTHTCPPCPAPELLGGPSVFLFPPKPKDTLMISRTPEVTCVVVDVSHEDPEVKFNWYVDGVEVHNAKTKPREEQYNSTYRVVSVLTVLHQDWLNGKEYKCKVSNKALPAPIEKTISKAKGQPREPQVYTLPPCRDELTKNQVSLWCLVKGFYPSDIAVEWESNGQPENNYKTTPPVLDSDGSFFLYSKLTVDKSRWQQGNVFSCSVMHEALHNHYTQKSLSLSPTGGGGGSGGGGGSGGGGGSEVQLVESGGGLVQPGGSLRLSCAASGFTFNTYAMNWVRQAPGKCLEWVARIRSKYNNYATYYADSVKGRFTISRDDAKNTLYLQMSSLRAEDTAVYYCVRHGNFGNSYVSWFAYWGQGTLVTVKPGGGGEVQLVESGGGEVQPGGSLRLSCAPSERTFSTYTMGWFRQAPGKEREFVAVVNWGGGSKYYAESVKGRFTISRDNAKNTVYLQMSSLRAEDTAVYYCAAGGAYSGPYYDTRQYTYWGQGTLVTVKP
chain 2: not shown
notes: IgG1-Hole 294, 298 or 446; VH13 237; VL10 265)
As to B5, the Kd is greater than 200 nM in experiment [1] and 0.539 nM in experiment [2].
